Where “and” joins values, the source holds several entries; their conditions need not be identical. Equal entries are not always repeated. Blank lines part the entries; values can stand above or below the substance they belong to. Where no end group is shown, it is not given here. [ ]: non-standard residue; d: D form. d1Nal = N[C@H](Cc1cccc2ccccc12)C(=O)O; d2Nal = N[C@H](Cc1ccc2ccccc2c1)C(=O)O; dCha = N[C@H](CC1CCCCC1)C(=O)O; Nle = CCCC[C@H](N)C(=O)O; Orn = NCCC[C@H](N)C(=O)O; Aib = CC(C)(N)C(=O)O; Inp = O=C(O)C1CCNCC1; GABA = NCCCC(=O)O; βAla = NCCC(=O)O
Molecular target: Ghrelin/GHRP/GHS Receptor (Rattus norvegicus, UniProt O08725)
Test: In vivo GH release in rat (serum GH by RIA after i.v. peptide)
Conditions: for Unstimulated Basal GH Release from rat: Table 3; for Unstimulated Basal GH release from rats: Table 5; for Stimulated GH release from rat: Table 2; for Stimulated (S) GH release from rats / Unstimulated GH release from rats: Table 4; for Stimulated (S) GH release from rats: P + S, stimulator 10 μg; for Unstimulated GH release from rats: −S
Method: For the in vivo assay of GH Release in rat, immature female Sprague Dawley rats were obtained from Charles River from Wilmington, Mass. After arrival they were housed at 25° C. with a 14:10 h light:dark cycle. Water and Purina rat chow were available at libitum. Pups were weaned at 21 days of age.
Immature twenty six day old female Sprague Dawley rats, 3-6 rats per treatment dose, were pretreated with pentobarbital 20 minutes before iv injection of vehicle/peptide or peptide plus stimulator. Injection was made as a 0.1 ml solution. For the non-pentobarbital treated rat assay, peptides were administered iv into the tail vein of conscious rats. All animals were sacrificed by guillotine after iv peptide or vehicle. Trunk blood was collected at +10-15 minutes […], allowed to clot, centrifuged and serum stored until assayed for GH levels by RIA. The GH RIA reagents were distributed by the NIH. Control data was collected from rats treated with only the corresponding vehicle in the absence of peptide or stimulator. Control stimulated data was collected from rats treated with stimulator alone in the absence of any peptide.

[1] = peptide antagonist alone 10 μg i.v.
[2] = peptide antagonist alone 30 μg i.v.
[3] = peptide antagonist alone 1 μg i.v.
[4] = peptide antagonist alone 3 μg i.v.
[5] = peptide antagonist 30 μg i.v. + stimulator DAla-DβNal-Ala-Trp-DPhe-Lys-NH2 0.3 μg
[6] = peptide antagonist 10 μg i.v. + stimulator DAla-DβNal-Ala-Trp-DPhe-Lys-NH2 1 μg
[7] = peptide antagonist 30 μg i.v. + stimulator DAla-DβNal-Ala-Trp-DPhe-Lys-NH2 1 μg
[8] = non-pentobarbital rats, peptide 30 μg i.v.
[9] = peptide antagonist 3 μg i.v. + stimulator DAla-DβNal-Ala-Trp-DPhe-Lys-NH2 1 μg
[10] = peptide antagonist 100 μg i.v. + stimulator DAla-DβNal-Ala-Trp-DPhe-Lys-NH2 1 μg

Chain of Ghrelin/GHRP/GHS Receptor (O08725 whole entry): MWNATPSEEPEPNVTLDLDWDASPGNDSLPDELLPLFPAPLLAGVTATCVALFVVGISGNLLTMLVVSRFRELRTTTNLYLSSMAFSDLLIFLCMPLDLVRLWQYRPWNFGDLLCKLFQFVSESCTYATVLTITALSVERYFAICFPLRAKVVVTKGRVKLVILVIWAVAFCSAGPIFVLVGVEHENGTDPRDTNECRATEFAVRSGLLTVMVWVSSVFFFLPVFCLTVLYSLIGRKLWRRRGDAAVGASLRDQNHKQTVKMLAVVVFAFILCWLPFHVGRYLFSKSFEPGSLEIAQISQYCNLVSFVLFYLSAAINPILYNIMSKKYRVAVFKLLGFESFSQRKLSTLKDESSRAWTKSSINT

Substance: His-DTrp-Phe-Trp-DPhe-Lys-NH2 (H[dW]FW[dF]K-NH2; N-terminus assumed; SMILES NCCCC[C@H](NC(=O)[C@@H](Cc1ccccc1)NC(=O)[C@H](Cc1c[nH]c2ccccc12)NC(=O)[C@H](Cc1ccccc1)NC(=O)[C@@H](Cc1c[nH]c2ccccc12)NC(=O)[C@@H](N)Cc1c[nH]cn1)C(N)=O)
Unstimulated Basal GH Release from rat (peptide alone 1 μg i.v.): 67 ± 14 ng/mL
Unstimulated Basal GH Release from rat (peptide alone 3 μg i.v.): 141 ± 53 ng/mL
Unstimulated Basal GH Release from rat (peptide alone 10 μg i.v.): 197 ± 70 ng/mL
Unstimulated Basal GH Release from rat (peptide alone 30 μg i.v.): 509 ± 48 ng/mL

Substance: Alaψ[CH2NH]His-DTrp-Ala-Trp-DPhe-Lys-NH2 (AH[dW]AW[dF]K-NH2; also: reduced bond ψ[CH2NH] between Ala1 and His2)
Unstimulated Basal GH release from rats [3]: 127 ± 32 ng/mL
Unstimulated Basal GH release from rats [4]: 147 ± 37 ng/mL

Substance: inip-Trp-Trp-Phe-NH2 ([Inp]WWF-NH2; N-terminus assumed; SMILES NC(=O)[C@H](Cc1ccccc1)NC(=O)[C@H](Cc1c[nH]c2ccccc12)NC(=O)[C@H](Cc1c[nH]c2ccccc12)NC(=O)C1CCNCC1)
Unstimulated Basal GH release from rats [1]: 69 ± 3 ng/mL
Unstimulated Basal GH release from rats [2]: 81 ± 10 ng/mL

Substance: αAbu-DTrp-DTrp-Orn-NH2
Unstimulated Basal GH release from rats [3]: 85 ± 25 ng/mL
Unstimulated Basal GH release from rats [1]: 88 ± 18 ng/mL
Unstimulated Basal GH release from rats [2]: 50 ± 6 ng/mL

Substance: DAla-DcyclohexylAla-Ala-Phe-DPhe-Nle-NH2 ([dA][dCha]AF[dF][Nle]-NH2; N-terminus assumed; SMILES CCCC[C@H](NC(=O)[C@@H](Cc1ccccc1)NC(=O)[C@H](Cc1ccccc1)NC(=O)[C@H](C)NC(=O)[C@@H](CC1CCCCC1)NC(=O)[C@@H](C)N)C(N)=O)
Unstimulated Basal GH Release from rat (peptide alone 1 μg i.v.): 435 ± 152 ng/mL
Unstimulated Basal GH Release from rat (peptide alone 3 μg i.v.): 195 ± 34 ng/mL
Unstimulated Basal GH Release from rat (peptide alone 10 μg i.v.): 250 ± 41 ng/mL
Unstimulated Basal GH Release from rat (peptide alone 30 μg i.v.): 393 ± 51 ng/mL
Unstimulated Basal GH Release from rat (peptide alone 100 μg i.v.): 697 ± 75 ng/mL

Substance: DAla-DβNal-DAla-DTrp-Phe-Lys-NH2 ([dA][d2Nal][dA][dW]FK-NH2)
Unstimulated Basal GH Release from rat (peptide alone 1 μg i.v.): 184 ± 55 ng/mL
Unstimulated Basal GH Release from rat (peptide alone 3 μg i.v.): 467 ± 201 ng/mL
Unstimulated Basal GH Release from rat (peptide alone 10 μg i.v.): 244 ± 107 ng/mL

Substance: DAla-DβNal-Ala-Thr-DThr-Lys-NH2 ([dA][d2Nal]AT[dT]K-NH2; N-terminus assumed; SMILES C[C@H](NC(=O)[C@@H](Cc1ccc2ccccc2c1)NC(=O)[C@@H](C)N)C(=O)N[C@H](C(=O)N[C@@H](C(=O)N[C@@H](CCCCN)C(N)=O)[C@H](C)O)[C@@H](C)O)
Unstimulated Basal GH Release from rat (peptide alone 3 μg i.v.): 255 ± 38 ng/mL
Unstimulated Basal GH Release from rat (peptide alone 30 μg i.v.): 288 ± 31 ng/mL
Unstimulated Basal GH Release from rat (peptide alone 100 μg i.v.): 386 ± 57 ng/mL

Substance: Ala-His-DTrp-DLys-Trp-DPhe-Lys-NH2 (AH[dW][dK]W[dF]K-NH2; N-terminus assumed; SMILES C[C@H](N)C(=O)N[C@@H](Cc1c[nH]cn1)C(=O)N[C@H](Cc1c[nH]c2ccccc12)C(=O)N[C@H](CCCCN)C(=O)N[C@@H](Cc1c[nH]c2ccccc12)C(=O)N[C@H](Cc1ccccc1)C(=O)N[C@@H](CCCCN)C(N)=O)
Stimulated GH release from rat [5]: 1487 ± 397 ng/mL

Substance: Glyψ[CH2NH]-DβNal-Ala-Trp-DPhe-Lys-NH2 (G[d2Nal]AW[dF]K-NH2; also: reduced Gly-ψ[CH2NH] bond between Gly1 and DβNal2)
Stimulated GH release from rat (peptide antagonist 10 μg i.v. + stimulator DAla-DβNal-Ala-Trp-DPhe-Lys-NH2 0.3 μg): 1112 ± 200 ng/mL
Stimulated GH release from rat [6]: 2307 ± 176 ng/mL and 1842 ± 454 ng/mL
Stimulated GH release from rat [5]: 578 ± 82 ng/mL
Stimulated GH release from rat [7]: 890 ± 236 ng/mL and 1135 ± 140 ng/mL

Substance: Tyr-DAla-Sar-NMePhe-NH2
Stimulated (S) GH release from rats [8]: 24 ± 6 ng/mL
Unstimulated GH release from rats [8]: 18 ± 4 ng/mL

Substance: DThr-DαNal-DTrp-DPro-Arg-NH2 ([dT][d1Nal][dW][dP]R-NH2; N-terminus assumed; SMILES C[C@H](O)[C@@H](N)C(=O)N[C@H](Cc1cccc2ccccc12)C(=O)N[C@H](Cc1c[nH]c2ccccc12)C(=O)N1CCC[C@@H]1C(=O)N[C@@H](CCCNC(=N)N)C(N)=O)
Unstimulated Basal GH release from rats [3]: 60 ± 5 ng/mL
Unstimulated Basal GH release from rats [4]: 130 ± 24 ng/mL
Unstimulated Basal GH release from rats [1]: 134 ± 31 ng/mL

Substance: Tyr-DAla-Phe-Aib-NH2 (Y[dA]F[Aib]-NH2; N-terminus assumed; SMILES C[C@@H](NC(=O)[C@@H](N)Cc1ccc(O)cc1)C(=O)N[C@@H](Cc1ccccc1)C(=O)NC(C)(C)C(N)=O) [Tyr-DAla-Phe-Alb-NH2]
Stimulated (S) GH release from rats [8]: 23 ± 5 ng/mL
Unstimulated GH release from rats [8]: 18 ± 1 ng/mL

Substance: Alaψ[CH2NH]-DβNal-Ala-Trp-DPhe-Lys-NH2 (A[d2Nal]AW[dF]K-NH2; also: Ala1-DβNal2 reduced bond ψ[CH2NH])
Stimulated GH release from rat [9]: 2771 ± 157 ng/mL
Stimulated GH release from rat [6]: 2341 ± 416 ng/mL
Stimulated GH release from rat [7]: 1948 ± 450 ng/mL
Stimulated GH release from rat [10]: 1639 ± 221 ng/mL

Substance: DLys-DβNal-Ala-Trp-DPhe-Lys-NH2 ([dK][d2Nal]AW[dF]K-NH2; N-terminus assumed; SMILES C[C@H](NC(=O)[C@@H](Cc1ccc2ccccc2c1)NC(=O)[C@H](N)CCCCN)C(=O)N[C@@H](Cc1c[nH]c2ccccc12)C(=O)N[C@H](Cc1ccccc1)C(=O)N[C@@H](CCCCN)C(N)=O)
Unstimulated GH release from rats (pentobarbital rats, peptide 3 μg i.v.): 616 ± 169 ng/mL
Unstimulated GH release from rats (pentobarbital rats, peptide 10 μg i.v.): 847 ± 17 ng/mL
Unstimulated GH release from rats (pentobarbital rats, peptide 30 μg i.v.): 629 ± 146 ng/mL
Unstimulated GH release from rats (pentobarbital rats, peptide 100 μg i.v.): 228 ± 45 ng/mL

Substance: Lys-DHis-DTrp-Phe-NH2 (K[dH][dW]F-NH2; N-terminus assumed; SMILES NCCCC[C@H](N)C(=O)N[C@H](Cc1c[nH]cn1)C(=O)N[C@H](Cc1c[nH]c2ccccc12)C(=O)N[C@@H](Cc1ccccc1)C(N)=O)
Unstimulated Basal GH release from rats [1]: 121 ± 24 ng/mL

Results, then the substance that gave them:

Unstimulated Basal GH Release from rat (peptide alone 3 μg i.v.): 181 ± 28 ng/mL
Unstimulated Basal GH Release from rat (peptide alone 10 μg i.v.): 237 ± 18 ng/mL
Unstimulated Basal GH Release from rat (peptide alone 30 μg i.v.): 354 ± 81 ng/mL
Unstimulated Basal GH Release from rat (peptide alone 100 μg i.v.): 771 ± 76 ng/mL
Substance: DcyclohexylAla-Ala-Trp-DPhe-NH2 ([dCha]AW[dF]-NH2; N-terminus assumed; SMILES C[C@H](NC(=O)[C@H](N)CC1CCCCC1)C(=O)N[C@@H](Cc1c[nH]c2ccccc12)C(=O)N[C@H](Cc1ccccc1)C(N)=O)

Unstimulated Basal GH release from rats [1]: 228 ± 76 ng/mL
Unstimulated Basal GH release from rats [2]: 172 ± 14 ng/mL
Unstimulated Basal GH release from rats (peptide antagonist alone 100 μg i.v.): 153 ± 45 ng/mL
Substance: DAla-Ala-DAla-DTrp-Phe-Lys-NH2 ([dA]A[dA][dW]FK-NH2; N-terminus assumed; SMILES C[C@H](NC(=O)[C@@H](C)N)C(=O)N[C@H](C)C(=O)N[C@H](Cc1c[nH]c2ccccc12)C(=O)N[C@@H](Cc1ccccc1)C(=O)N[C@@H](CCCCN)C(N)=O)

Unstimulated Basal GH release from rats [3]: 118 ± 16 ng/mL
Unstimulated Basal GH release from rats [1]: 126 ± 27 ng/mL
Unstimulated Basal GH release from rats [2]: 79 ± 31 ng/mL
Substance: αγAbu-DTrp-DTrp-Orn-NH2

Unstimulated Basal GH release from rats [3]: 82 ± 28 ng/mL
Unstimulated Basal GH release from rats [1]: 90 ± 5 ng/mL
Unstimulated Basal GH release from rats [2]: 113 ± 32 ng/mL
Substance: [GABA][dW][dW][Orn]-NH2

Unstimulated Basal GH Release from rat (peptide alone 30 μg i.v.): 341 ± 46 ng/mL
Unstimulated Basal GH Release from rat (peptide alone 100 μg i.v.): 636 ± 171 ng/mL
Substance: βAla-Trp-DAla-DTrp-Phe-NH2 ([βAla]W[dA][dW]F-NH2; N-terminus assumed; SMILES C[C@@H](NC(=O)[C@H](Cc1c[nH]c2ccccc12)NC(=O)CCN)C(=O)N[C@H](Cc1c[nH]c2ccccc12)C(=O)N[C@@H](Cc1ccccc1)C(N)=O)

Stimulated GH release from rat (peptide antagonist 1 μg i.v. + stimulator DAla-DβNal-Ala-Trp-DPhe-Lys-NH2 1 μg): 2305 ± 320 ng/mL
Stimulated GH release from rat [9]: 1990 ± 196 ng/mL
Stimulated GH release from rat [6]: 1550 ± 284 ng/mL
Stimulated GH release from rat [7]: 946 ± 133 ng/mL
Stimulated GH release from rat [10]: 462 ± 122 ng/mL
Substance: Glyψ[CH2NH]-DβNal-DLys-Trp-DPhe-Lys-NH2 (G[d2Nal][dK]W[dF]K-NH2; also: reduced Gly-ψ[CH2NH] bond between Gly1 and DβNal2)

Unstimulated Basal GH Release from rat (peptide alone 3 μg i.v.): 235 ± 43 ng/mL
Unstimulated Basal GH Release from rat (peptide alone 10 μg i.v.): 178 ± 33 ng/mL
Unstimulated Basal GH Release from rat (peptide alone 30 μg i.v.): 172 ± 15 ng/mL
Unstimulated Basal GH Release from rat (peptide alone 100 μg i.v.): 185 ± 39 ng/mL
Substance: DAla-DβNal-Ala-Ala-DAla-Lys-NH2 ([dA][d2Nal]AA[dA]K-NH2; N-terminus assumed; SMILES C[C@H](NC(=O)[C@H](C)NC(=O)[C@@H](Cc1ccc2ccccc2c1)NC(=O)[C@@H](C)N)C(=O)N[C@H](C)C(=O)N[C@@H](CCCCN)C(N)=O)
